Measured values from patent US20250154231A1.
Like-named read-outs stand apart in the source and are kept apart here.

How the values were obtained:
Test in all cases: cell-based or functional assay
[1] = molecular target: SARS-CoV-2 spike (S) protein, synthetic variant "BA.4+all"
[2] = molecular target: SARS-CoV-2 Omicron BA.1 spike (S) protein, pseudovirus construct (SARS-CoV-2) (UniProt P0DTC2)
[3] = molecular target: SARS-CoV-2 Omicron BA.1.1 spike (S) protein, pseudovirus construct (SARS-CoV-2) (UniProt P0DTC2)
[4] = molecular target: SARS-CoV-2 Omicron BA.2 spike (S) protein, pseudovirus construct (SARS-CoV-2) (UniProt P0DTC2)
[5] = molecular target: SARS-CoV-2 Omicron BA.3 spike (S) protein, pseudovirus construct (SARS-CoV-2) (UniProt P0DTC2)
[6] = molecular target: SARS-CoV-2 Victoria spike (S) protein (SARS-CoV-2) (UniProt P0DTC2)
[7] = molecular target: SARS-CoV-2 spike (S) protein, Omicron BA.2 + N460K (SARS-CoV-2) (UniProt P0DTC2)
[8] = molecular target: SARS-CoV-2 spike (S) protein, Omicron BA.2 + D339H (SARS-CoV-2) (UniProt P0DTC2)
[9] = molecular target: SARS-CoV-2 spike (S) protein, Omicron BA.2 + G446S (SARS-CoV-2) (UniProt P0DTC2)
[10] = molecular target: SARS-CoV-2 spike (S) protein, Omicron BA.2 + N460K (SARS-CoV-2) (UniProt P0DTC2); remark: listed apart in the source

Omi-32 (antibody), sequence (VH): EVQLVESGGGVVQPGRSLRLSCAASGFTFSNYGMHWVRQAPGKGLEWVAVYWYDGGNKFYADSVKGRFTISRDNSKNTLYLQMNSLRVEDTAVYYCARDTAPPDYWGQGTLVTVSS
Omi-32 (antibody), sequence (VL): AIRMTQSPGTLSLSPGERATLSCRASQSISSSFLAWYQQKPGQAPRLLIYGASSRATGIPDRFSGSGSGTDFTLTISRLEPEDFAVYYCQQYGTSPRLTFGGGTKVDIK
Omi-18 (antibody), sequence (VH): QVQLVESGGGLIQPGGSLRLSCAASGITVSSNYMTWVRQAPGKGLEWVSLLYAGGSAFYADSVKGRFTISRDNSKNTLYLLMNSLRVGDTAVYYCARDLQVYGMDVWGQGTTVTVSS
Omi-18 (antibody), sequence (VL): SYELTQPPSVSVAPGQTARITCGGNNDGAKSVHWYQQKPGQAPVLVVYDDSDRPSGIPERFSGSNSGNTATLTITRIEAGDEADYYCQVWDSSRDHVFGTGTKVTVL
Omi-42 (antibody), sequence (VH): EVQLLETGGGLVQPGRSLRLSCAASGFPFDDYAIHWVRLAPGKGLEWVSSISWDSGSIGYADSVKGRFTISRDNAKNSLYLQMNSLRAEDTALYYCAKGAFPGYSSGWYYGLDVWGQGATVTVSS
Omi-42 (antibody), sequence (VL): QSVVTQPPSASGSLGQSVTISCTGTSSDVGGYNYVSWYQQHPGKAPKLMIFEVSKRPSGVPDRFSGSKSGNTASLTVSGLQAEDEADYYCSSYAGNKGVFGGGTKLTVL
Omi-29 (antibody), sequence (VH): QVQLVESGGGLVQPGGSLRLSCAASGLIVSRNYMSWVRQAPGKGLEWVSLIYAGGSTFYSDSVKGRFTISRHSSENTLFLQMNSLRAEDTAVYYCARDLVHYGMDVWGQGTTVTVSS
Omi-29 (antibody), sequence (VL): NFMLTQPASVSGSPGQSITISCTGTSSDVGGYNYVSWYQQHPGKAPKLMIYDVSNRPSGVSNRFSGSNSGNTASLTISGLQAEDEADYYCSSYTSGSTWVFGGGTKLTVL
Omi-12 (antibody), sequence (VH): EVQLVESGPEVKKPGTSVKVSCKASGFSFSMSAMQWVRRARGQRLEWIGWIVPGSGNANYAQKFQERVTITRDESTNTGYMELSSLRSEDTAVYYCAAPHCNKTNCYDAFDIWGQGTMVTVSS
Omi-12 (antibody), sequence (VL): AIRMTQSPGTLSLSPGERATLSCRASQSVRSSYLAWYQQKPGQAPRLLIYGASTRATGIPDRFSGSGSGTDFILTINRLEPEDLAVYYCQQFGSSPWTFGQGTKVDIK
AZD8895 (antibody), sequence (VH): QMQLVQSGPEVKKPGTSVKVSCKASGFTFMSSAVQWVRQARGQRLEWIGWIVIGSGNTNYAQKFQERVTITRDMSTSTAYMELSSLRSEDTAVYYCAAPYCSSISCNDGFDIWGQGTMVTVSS
AZD8895 (antibody), sequence (VL): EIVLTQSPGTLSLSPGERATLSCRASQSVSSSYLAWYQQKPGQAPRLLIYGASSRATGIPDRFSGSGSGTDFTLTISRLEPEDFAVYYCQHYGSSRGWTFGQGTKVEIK

Substance: ADG20 (antibody)
- IC50, pseudoviral neutralization [1]: > 10 µg/mL

Substance: AZD1061 (antibody)
- IC50, pseudoviral neutralization [1]: > 10 µg/mL

Substance: AZD7442 (a combination of AZD8895 and AZD1061)
- IC50, pseudoviral neutralization [1]: > 10 µg/mL

Substance: AZD8895 (antibody)
- IC50, pseudoviral neutralization [1]: > 10 µg/mL

Substance: Known Antibody E (AZD7442)
- IC50 (ug/ml), pseudovirus [2]: 0.232 µg/mL
- IC50 (ug/ml), pseudovirus [3]: 0.806 µg/mL
- IC50 (ug/ml), pseudovirus [4]: 0.008 µg/mL
- IC50 (ug/ml), pseudovirus [5]: 0.065 µg/mL
- IC50 (ug/ml), pseudovirus [6]: 0.001 µg/mL

Substance: LY-CoV1404 (bebtelovimab) (antibody)
- IC50, pseudoviral neutralization [1]: > 10 µg/mL

Substance: Ly-CoV16 (antibody)
- IC50, pseudoviral neutralization [1]: > 10 µg/mL

Substance: Ly-CoV555 (antibody)
- IC50, pseudoviral neutralization [1]: > 10 µg/mL

Substance: Omi-03 (antibody)
- pseudovirus neutralisation IC50 [7]: 0.401 µg/mL
- pseudovirus neutralisation IC50 [8]: 0.006 µg/mL
- pseudovirus neutralisation IC50 [9]: 0.005 µg/mL
- pseudovirus neutralisation IC50 [10]: 0.401 µg/mL
- IC50, pseudoviral neutralization [1]: 0.432 µg/mL

Substance: Omi-12 (antibody)
- pseudovirus neutralisation IC50 [7]: 0.011 µg/mL
- pseudovirus neutralisation IC50 [8]: 0.003 µg/mL
- pseudovirus neutralisation IC50 [9]: 0.003 µg/mL
- pseudovirus neutralisation IC50 [10]: 0.011 µg/mL
- IC50, pseudoviral neutralization [1]: > 10 µg/mL

Substance: Omi-18 (antibody)
- pseudovirus neutralisation IC50 [7]: 0.014 µg/mL
- pseudovirus neutralisation IC50 [8]: 0.003 µg/mL
- pseudovirus neutralisation IC50 [9]: 0.003 µg/mL
- pseudovirus neutralisation IC50 [10]: 0.014 µg/mL
- IC50, pseudoviral neutralization [1]: 3.61 µg/mL

Substance: Omi-29 (antibody)
- pseudovirus neutralisation IC50 [7]: > 10 µg/mL
- pseudovirus neutralisation IC50 [8]: 0.018 µg/mL
- pseudovirus neutralisation IC50 [9]: 0.024 µg/mL
- pseudovirus neutralisation IC50 [10]: > 10 µg/mL
- IC50, pseudoviral neutralization [1]: > 10 µg/mL

Substance: Omi-32 (antibody)
- pseudovirus neutralisation IC50 [7]: 2.34 µg/mL
- pseudovirus neutralisation IC50 [8]: 0.683 µg/mL
- pseudovirus neutralisation IC50 [9]: 0.33 µg/mL
- pseudovirus neutralisation IC50 [10]: 2.34 µg/mL
- IC50, pseudoviral neutralization [1]: > 10 µg/mL

Substance: Omi-42 (antibody)
- pseudovirus neutralisation IC50 [7]: 0.007 µg/mL
- pseudovirus neutralisation IC50 [8]: 0.011 µg/mL
- pseudovirus neutralisation IC50 [9]: 0.016 µg/mL
- pseudovirus neutralisation IC50 [10]: 0.007 µg/mL
- IC50, pseudoviral neutralization [1]: 0.008 µg/mL

Substance: REGN10933 (antibody)
- IC50, pseudoviral neutralization [1]: > 10 µg/mL

Substance: REGN10987 (antibody)
- IC50, pseudoviral neutralization [1]: > 10 µg/mL

Substance: S309 (antibody)
- IC50, pseudoviral neutralization [1]: 0.584 µg/mL
